Reference: PMC2233703
Where a chain is given by its changes, count along the chain named. In names and notes the source's numbering stands.

B1: Kir6.2 wild-type linked to GFP at the COOH terminus (natural protein)
chain: MLSRKGIIPEEYVLTRLAEDPAEPRYRTRERRARFVSKKGNCNVAHKNIREQGRFLQDVFTTLVDLKWPHTLLIFTMSFLCSWLLFAMVWWLIAFAHGDLAPGEGTNVPCVTSIHSFSSAFLFSIEVQVTIGFGGRMVTEECPLAILILIVQNIVGLMINAIMLGCIFMKTAQAHRRAETLIFSKHAVITLRHGRLCFMLRVGDLRKSMIISATIHMQVVRKTTSPEGEVVPLHQVDIPMENGVGGNGIFLVAPLIIYHVIDSNSPLYDLAPSDLHHHQDLEIIVILEGVVETTGITTQARTSYLADEILWGQRFVPIVAEEDGRYSVDYSKFGNTIKVPTPLCTARQLDEDRSLLDALTLASSRGPLRKRSVAVAKAKPKFSISPDSLS
B2: Kir6.2 mutant R176C linked to GFP (natural protein)
chain: B1 chain with R176C

Legend:
[1] = target: sulfonylurea receptor SUR1 (UniProt Q09427)
[2] = target: sulfonylurea receptor SUR1 (UniProt Q09427); remark: listed apart in the source
[3] = target: sulfonylurea receptor SUR1 (UniProt Q09427); remark: listed apart in the source

Sequence of UniProt Q09427 (Q09427 whole entry): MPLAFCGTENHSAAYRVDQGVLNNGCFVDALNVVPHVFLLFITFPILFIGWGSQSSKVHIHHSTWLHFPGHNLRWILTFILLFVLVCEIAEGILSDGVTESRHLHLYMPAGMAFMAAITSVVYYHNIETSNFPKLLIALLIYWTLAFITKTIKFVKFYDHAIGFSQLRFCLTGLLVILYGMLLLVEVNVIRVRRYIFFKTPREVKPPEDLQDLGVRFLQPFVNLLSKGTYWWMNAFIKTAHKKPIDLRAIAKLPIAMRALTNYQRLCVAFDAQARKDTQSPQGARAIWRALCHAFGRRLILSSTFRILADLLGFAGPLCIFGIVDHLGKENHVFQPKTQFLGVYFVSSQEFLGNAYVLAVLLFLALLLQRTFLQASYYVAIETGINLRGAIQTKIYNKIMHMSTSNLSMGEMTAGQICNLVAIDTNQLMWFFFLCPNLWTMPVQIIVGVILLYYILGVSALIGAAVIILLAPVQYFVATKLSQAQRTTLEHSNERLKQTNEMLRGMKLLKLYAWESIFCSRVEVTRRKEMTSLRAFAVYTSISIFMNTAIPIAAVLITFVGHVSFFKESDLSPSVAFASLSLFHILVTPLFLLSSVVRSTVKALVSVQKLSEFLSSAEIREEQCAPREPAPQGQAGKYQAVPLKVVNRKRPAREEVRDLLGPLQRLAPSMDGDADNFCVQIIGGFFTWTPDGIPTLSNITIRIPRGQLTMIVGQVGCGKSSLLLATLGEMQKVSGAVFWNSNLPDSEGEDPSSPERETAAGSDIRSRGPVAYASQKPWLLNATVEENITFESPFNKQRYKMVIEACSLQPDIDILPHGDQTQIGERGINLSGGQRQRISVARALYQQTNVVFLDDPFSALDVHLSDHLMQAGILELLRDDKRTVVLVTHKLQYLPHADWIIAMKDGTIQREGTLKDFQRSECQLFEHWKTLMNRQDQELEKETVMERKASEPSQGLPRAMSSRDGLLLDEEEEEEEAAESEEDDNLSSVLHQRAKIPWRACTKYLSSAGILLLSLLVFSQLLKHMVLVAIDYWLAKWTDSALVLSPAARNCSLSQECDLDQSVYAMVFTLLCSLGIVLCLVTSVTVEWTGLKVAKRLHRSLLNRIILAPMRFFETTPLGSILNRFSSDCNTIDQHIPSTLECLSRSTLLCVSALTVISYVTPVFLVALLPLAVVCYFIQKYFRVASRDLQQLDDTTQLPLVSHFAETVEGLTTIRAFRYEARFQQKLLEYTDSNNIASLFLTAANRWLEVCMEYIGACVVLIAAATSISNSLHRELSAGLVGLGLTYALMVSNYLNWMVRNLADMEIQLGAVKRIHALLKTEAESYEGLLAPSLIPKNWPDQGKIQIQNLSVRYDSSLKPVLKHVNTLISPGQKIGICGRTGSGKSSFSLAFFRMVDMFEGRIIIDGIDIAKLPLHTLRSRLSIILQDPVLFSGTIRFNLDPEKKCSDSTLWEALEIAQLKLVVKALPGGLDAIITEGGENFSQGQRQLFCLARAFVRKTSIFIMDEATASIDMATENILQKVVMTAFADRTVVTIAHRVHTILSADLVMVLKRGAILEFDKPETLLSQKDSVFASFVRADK

Binder | inhibition of channel activity by 200 nM glyburide, inside-out patch clamp [1] | reactivation by MgADP of ATP-inhibited channels, inside-out patch clamp [2] | inhibition of channel activity by 0.5 μM glyburide, inside-out patch clamp [3]
B1 | 45% | 46% | 
B2 |  | 6% | 5.5%
